The target of test [1] is T1, nectin-4 on intact HT-1376 cells (human (endogenous in HT-1376), UniProt Q96NY8 32-510).
T1 construct: also called cellular nectin-4
T1 sequence (looked up): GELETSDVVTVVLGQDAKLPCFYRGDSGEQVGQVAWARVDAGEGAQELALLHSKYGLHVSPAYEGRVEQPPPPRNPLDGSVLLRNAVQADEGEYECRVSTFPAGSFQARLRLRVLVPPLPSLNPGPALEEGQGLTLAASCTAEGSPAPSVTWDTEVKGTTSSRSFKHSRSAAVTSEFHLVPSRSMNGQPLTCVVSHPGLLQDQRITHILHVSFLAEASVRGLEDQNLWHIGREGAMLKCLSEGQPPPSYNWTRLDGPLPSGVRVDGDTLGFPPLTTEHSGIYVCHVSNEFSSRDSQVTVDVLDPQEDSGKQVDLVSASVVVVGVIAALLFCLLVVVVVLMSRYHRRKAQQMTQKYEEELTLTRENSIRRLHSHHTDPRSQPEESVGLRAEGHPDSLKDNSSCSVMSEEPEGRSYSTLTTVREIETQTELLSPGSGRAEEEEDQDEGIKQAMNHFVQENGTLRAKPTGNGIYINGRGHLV
The experiment in a line: radioligand binding; saturation binding on intact HT-1376 cells, 10 radioligand concentrations (0.156-80 or 0.321-160 nM), 37 °C, 1 h, PBS wash; nonspecific with 1 µM 1d; apparent (covers binding and putative internalisation). The note with it: one partner purified.

For test [2], the target named is T1, nectin-4 on intact HT-1376 cells. The experiment in a line: radioligand binding; cellular efflux: release of [64Cu]Cu-4 from intact HT-1376 cells over 4 h at 37 °C after 1 h incubation at 10 nM; two-phase decay. Conditions: one partner purified.
Test [3] has as its target T2, recombinant human nectin-4 (human, UniProt Q96NY8 32-349).
T2 construct: nectin-4, human, recombinant; also called complete extracellular domain of nectin-4; source: bought: R&D Systems (Catalog number 2659-N4)
T2 sequence (looked up): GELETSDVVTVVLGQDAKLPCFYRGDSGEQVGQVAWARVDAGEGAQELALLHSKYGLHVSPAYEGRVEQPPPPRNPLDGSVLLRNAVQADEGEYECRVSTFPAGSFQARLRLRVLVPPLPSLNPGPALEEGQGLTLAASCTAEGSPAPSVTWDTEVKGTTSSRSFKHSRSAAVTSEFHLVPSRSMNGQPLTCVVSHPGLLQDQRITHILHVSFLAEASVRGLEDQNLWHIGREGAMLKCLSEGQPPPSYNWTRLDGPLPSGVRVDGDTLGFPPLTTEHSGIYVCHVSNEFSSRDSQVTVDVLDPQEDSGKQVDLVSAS
The experiment in a line: fluorescence polarisation; fluorescence anisotropy, direct binding: 1 nM fluorescent probe, 11 to 13 concentrations of nectin-4 (e.g. 0.06-250 nM), 37 °C, 1200 s, HEPES buffer 20 mM pH 7.4, 0.01% Tween20, NaCl, 1% DMSO; Morrison equation. The note with it: both partners purified. Background: Fluorescence polarisation rises when a labelled molecule tumbles more slowly, as on binding a larger partner.

Test [4] addresses T3, recombinant N-terminal Ig-like V domain of nectin-4 (human).
T3 construct: nectin-4, N-terminal Ig-like V domain, recombinant; source: bought: Acro Biosystems (NE4-H82Ea)
The experiment in a line: fluorescence polarisation; fluorescence anisotropy, direct binding of probe 1a to the N-terminal Ig-like V domain of nectin-4; same procedure as for nectin-4. The note with it: both partners purified.

Numbered stars: 1 amine (or outer) side, 2 acyl side, 3 side chain; on linkers, the order of the positions; unused ones are H or OH. Bridge positions count the residues as written; N and C are the ends. Square brackets hold non-standard residues; d marks the D form. * marks the point of attachment. 6‑TAMRA = CN(C)c1ccc2c(-c3cc(C(=O)*)ccc3C(=O)[O-])c3ccc(N(C)C)cc3[o+]c2c1; (R)‑NODAGA = O=C(O)CN1CCN(CC(=O)O)CCN([C@H](CCC(=O)*)C(=O)O)CC1; 6FAM = O=C1OC2(c3ccc(O)cc3Oc3cc(O)ccc32)c2cc(C(=O)*)ccc21; TATA = O=C(CC[*:1])N1CN(C(=O)CC[*:2])CN(C(=O)CC[*:3])C1; Mox = methoxinine, COCC[C@H](N[*:1])C(=O)[*:2]; 1Nal = N[C@@H](Cc1cccc2ccccc12)C(=O)O; 2Nal = N[C@@H](Cc1ccc2ccccc2c1)C(=O)O; Hyp = O=C(O)[C@@H]1C[C@@H](O)CN1; hArg = N=C(N)NCCCC[C@H](N)C(=O)O

This note sets out measurements from paper PMC12557367, ““Precision on Two Wheels”–Structural Refinement of ^64Cu- and ^68Ga-Labeled Bicyclic Peptides Targeting Nectin‑4 for Improved Tumor Imaging: From Preclinical Development to First-in-Human Application” (Journal of Medicinal Chemistry, 2025).

T3 sequence (Q96NY8 whole entry): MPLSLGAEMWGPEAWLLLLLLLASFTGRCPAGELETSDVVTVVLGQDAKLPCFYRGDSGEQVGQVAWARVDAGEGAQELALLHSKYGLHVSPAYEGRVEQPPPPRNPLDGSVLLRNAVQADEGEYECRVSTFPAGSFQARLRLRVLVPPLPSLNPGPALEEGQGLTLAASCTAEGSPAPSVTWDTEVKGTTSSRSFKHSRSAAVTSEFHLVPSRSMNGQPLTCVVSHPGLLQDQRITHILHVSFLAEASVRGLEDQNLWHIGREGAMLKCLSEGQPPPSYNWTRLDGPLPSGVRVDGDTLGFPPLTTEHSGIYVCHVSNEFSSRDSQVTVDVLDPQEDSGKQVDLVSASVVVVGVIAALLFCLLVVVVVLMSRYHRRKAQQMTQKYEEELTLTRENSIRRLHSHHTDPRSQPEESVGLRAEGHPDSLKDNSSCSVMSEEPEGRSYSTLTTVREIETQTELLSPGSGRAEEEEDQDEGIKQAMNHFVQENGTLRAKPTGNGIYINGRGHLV

B1: [64Cu]Cu-4 (peptide)
chain: {(R)‑NODAGA}-CP[1Nal][dD]C[Mox][hArg]DWSTP[Hyp]WC-NH2
modifications: linker 1-5-15 via TATA; also: NODAGA complexed with 64Cu
Turning to B1, the Kd in test [1] amounted to 6.06 nM. In test [2], the “half-life of the fast phase of cellular release” value was 9.5 min.

B2: 8b (peptide)
chain: 6FAM-CP[2Nal][dD]CMRDWSTP[Hyp]WC-NH2
modifications: linker 1-5-15 via TATA
On to B2, for which, in test [3], the Kd was 1.38 ± 0.06 nM.

B3: 1a (peptide)
chain: {6‑TAMRA}-CP[1Nal][dD]CM[hArg]DWSTP[Hyp]WC-NH2
modifications: linker 1-5-15 via TATA
B3: the figures for the Kd in test [3] and in test [4] were 0.94 ± 0.09 nM and 1.3 nM, respectively.

B4: 1b (peptide)
chain: 6FAM-CP[1Nal][dD]CM[hArg]DWSTP[Hyp]WC-NH2
modifications: linker 1-5-15 via TATA
In the case of B4, the Kd in test [3] was 0.17 ± 0.01 nM.
